Primed or numbered codes have the meaning given here. Where no end group is shown, it is not given here. [ ]: non-standard residue; d: D form. PEG5′ = PEG5 linker
Legend:
[1] = molecular target: T1, HEK-293T cells expressing GFP-tagged E17K PH Domain (Homo sapiens, UniProt P31749, E17K); test: Cell imaging, cells expressing E17K protein; type: cell-based; conditions: confocal imaging, 50 nM, compared with WT cells, in words
T1 construct: transfected to express GFP-tagged E17K or GFP-tagged WT PH Domain proteins; expressed in transfected cells; host or cells: HEK-293T
T1 sequence (P31749 5-108 E17K limits assumed): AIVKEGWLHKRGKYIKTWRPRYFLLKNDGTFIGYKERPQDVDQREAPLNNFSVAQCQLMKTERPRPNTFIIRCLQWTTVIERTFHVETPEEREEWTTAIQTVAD
Description: The yleaf ligand was then labeled with both a Tat cell-penetrating peptide^22 and a Cy5 dye (FIG. 2a). The combination of the GFP label on the protein and the Cy5 label on the dye permitted the use of multi-color fluorescence microscopy for interrogating any spatial registry between the two fluorescent labels, as well as tracking the efficiency of the protein expression in the cells. Live HEK-293T cells expressing these GFP-tagged proteins were exposed to varying concentrations of the modified yleaf anchor ligand 6 for one hour. The cells were then incubated in fresh media for one hour before being thoroughly washed in PBS to remove weakly and nonspecifically bound PCC and fixed for fluorescence microscopy measurements.
However, the level of the PCC agent retained by the cells was substantially different (FIG. 4). […] Pearson's correlation coefficient was used to quantify the co-localization of the two different dyes^23 by calculating over four representative images for each of the WT or E17K mutant cells and averaging the results. […] The Cy5 fluorescence intensity on a per cell basis has also been calculated for the cells expressing the WT and E17K proteins, and this difference is again statistically significant (p=0.00018). […]

full length Akt1E17K = full length Akt1E17K (Homo sapiens, UniProt P31749, E17K); test: Fluorescence polarization binding to full-length E17K Akt1; conditions: triligand 9, triplicate, in words
Sequence of full length Akt1E17K (P31749 whole entry E17K): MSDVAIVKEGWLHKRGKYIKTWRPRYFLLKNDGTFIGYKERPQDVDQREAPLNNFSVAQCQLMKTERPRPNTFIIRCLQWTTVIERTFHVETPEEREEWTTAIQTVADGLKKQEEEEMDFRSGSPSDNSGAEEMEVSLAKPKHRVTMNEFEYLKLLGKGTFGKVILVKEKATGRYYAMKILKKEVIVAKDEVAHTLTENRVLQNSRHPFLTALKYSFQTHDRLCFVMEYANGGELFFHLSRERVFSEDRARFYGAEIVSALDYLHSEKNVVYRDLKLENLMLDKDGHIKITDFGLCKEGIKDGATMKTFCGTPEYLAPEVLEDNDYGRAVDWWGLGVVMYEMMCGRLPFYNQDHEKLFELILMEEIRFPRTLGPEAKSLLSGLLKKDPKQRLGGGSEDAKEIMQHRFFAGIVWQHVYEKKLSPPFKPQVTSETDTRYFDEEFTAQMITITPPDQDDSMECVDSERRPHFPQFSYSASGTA
Method: FIG. 2: Anchor ligand structure and characterization. (FIG. 2A) The peptide anchor ligand, yleaf (SEQ ID NO: 43), which was discovered using the epitope-targeting technique. The different sets of R groups indicate the modifications that were made to perform the various experiments described. (FIG. 2B) Point ELISA for specificity obtained by immobilizing biotinylated yleaf (SEQ ID NO: 43) anchor ligand 2 onto a Neutravidin plate, then incubating with a 6 His-tagged epitope (“6 His” disclosed as SEQ ID NO: 4) 3. […] (FIG. 2C) Binding curves of yleaf (SEQ ID NO: 43) anchor ligand 4 to the full-length WT or E17K mutant Akt1 proteins obtained in solution by fluorescence polarization. A saturation point for the WT ligand was not reached due to the prohibitively high protein concentration required. (FIG. 2D) Full binding curves of yleaf (SEQ ID NO: 43) anchor ligand 4 to the WT or E17K mutant epitopes. […] All assays were performed in triplicate and averaged. Error bars indicate standard deviation.
FIG. 5: The PCC agent triligand development strategy, structure, and inhibition data. (FIG. 5A) The yleaf (SEQ ID NO: 43) anchor ligand with a C-terminal alkyne 2 was screened against an azide-terminated library in the presence of the full-length PH Domain to identify a biligand. The biligand 7 was then appended with an N-terminal azide and screened against an alkyne library to identify a triligand. […]

PEG5-TAT-Cy5: control construct with no anchor ligand peptide, used in cell imaging ([PEG5′]YGRKKRRQRR; not fully specified (C-terminus); numbers in words are those of the source; also: Cy5 dye attached, site not given here)
retention of Cy5-labeled ligand in cells expressing E17K PH Domain (Cy5 signal) [1]: looks the same as the WT PH Domain images

triligand 9: form of the ivdae-yleaf-yksy triligand used in fluorescence polarization assays (peptide 1 [dI][dV][dD][dA][dE]; peptide 2 [dY][dL][dE][dA][dF]; peptide 3 [dY][dK][dS][dY]; also: three chains joined by triazole click linkages (Lys(N3) and Pra handles), places not settled)
selectivity for E17K over WT full-length protein by fluorescence polarization (full length Akt1E17K): E17K mutant selectivity is retained

From patent US10975123B2, “Mutant Akt-specific capture agents, compositions, and methods of using and making” (California Institute of Technology, priority 2014, dated 2021)
